Assay results from patent US7371553.
Read-outs that look alike come from different tables or passages of the source.

T1: succinyl-AAPF-p-nitroanilide
T1 sequence: AAPF

T2: suc-AAPA-pNA
T2 sequence: AAPA

T3: suc-AAPR-pNA
T3 sequence: AAPR

T4: suc-AAPE-pNA
T4 sequence: AAPE

T5: suc-AAPE-pNA
T5 chain: AAPE

T6: suc-AAPR-pNA
T6 chain: AAPR

T7: suc-AAPA-pNA
T7 chain: AAPA

T8: succinyl-AAPF-p-nitroanilide
T8 chain: AAPF

B1: subtilisin Bacillus lentus, wild type (protein)
chain: AQSVPWGISRVQAPAAHNRGLTGSGVKVAVLDTGISTHPDLNIRGGASFVPGEPSTQDGNGHGTHVAGTIAALNNSIGVLGVAPSAELYAVKVLGASGSGSVSSIAQGLEWAGNNGMHVANLSLGSPSPSATLEQAVNSATSRGVLVVAASGNSGAGSISYPARYANAMAVGATDQNNNRASFSQYGAGLDIVAPGVNVQSTYPGSTYASLNGTSMATPHVAGAAALVKQKNPSWSNVQIRNHLKNTATSLGSTNLYGSGLVNAEAATR

Key:
[1] = system: T1, succinyl-AAPF-p-nitroanilide
suc-AAPA-pNA [2] = system: T2, suc-AAPA-pNA
suc-AAPR-pNA [3] = system: T3, suc-AAPR-pNA
suc-AAPE-pNA [4] = system: T4, suc-AAPE-pNA
suc-AAPE-pNA [5] = molecular target: T5, suc-AAPE-pNA
suc-AAPR-pNA [6] = molecular target: T6, suc-AAPR-pNA
suc-AAPA-pNA [7] = molecular target: T7, suc-AAPA-pNA
[8] = molecular target: T8, succinyl-AAPF-p-nitroanilide

Row | Molecule | KM [1] | further results
1 | SBL N62C-c of Example 2 (5,5-bis(aminomethyl)-3-oxo-hexyl side chain) | 1060 µM | 
2 | SBL L217C-c of Example 2 (5,5-bis(aminomethyl)-3-oxo-hexyl side chain) | 2940 µM | 
3 | SBL S156C (unmodified cysteine mutant, R = H) | 850 µM | 
4 | SBL S166C-S-CH2C6H5 | 1170 µM | kcat/KM [1]: 20000 M⁻¹ s⁻¹; KM (suc-AAPA-pNA [2]): 800 µM; kcat/KM (suc-AAPA-pNA [2]): 9000 M⁻¹ s⁻¹
5 | SBL L217C-b of Example 2 (2-(trimethylammonium)ethyl side chain) | 690 µM | 
6 | SBL S166C (unmodified cysteine mutant, R = H) | 500 µM | 
7 | SBL N62C-a of Example 2 (aminoethyl side chain) | 1000 µM | 
8 | SBL S166C-S-CH2CH2NH3+ | 680 µM | kcat/KM [1]: 74000 M⁻¹ s⁻¹; kcat/KM substrate screen (FIG. 10) (suc-AAPR-pNA [3]): the substrate screen (FIG. 10) shows that suc-AAPA-pNA and suc-AAPR-pNA are poorer substrates; KM (suc-AAPE-pNA [4]): 1900 µM; kcat/KM (suc-AAPE-pNA [4]): 7600 M⁻¹ s⁻¹; kcat/KM substrate screen (FIG. 10) (suc-AAPA-pNA [2]): the substrate screen (FIG. 10) shows that suc-AAPA-pNA and suc-AAPR-pNA are poorer substrates
9 | SBL N62C-e of Example 1 (3,3,4-tricarboxybutyl side chain) | 1460 µM | 
10 | SBL L217C-e of Example 1 (3,3,4-tricarboxybutyl side chain) | 1480 µM | 
11 | SBL N62C-a of Example 1 (sulfonatoethyl side chain) | 930 µM | 
12 | SBL S166C-c of Example 2 (5,5-bis(aminomethyl)-3-oxo-hexyl side chain) | 1270 µM | 
13 | SBL S166C-S-CH2C6H4-3,5-(COO-)2 | 1600 µM | kcat/KM [1]: 29000 M⁻¹ s⁻¹; KM (suc-AAPR-pNA [3]): 5500 µM; kcat/KM (suc-AAPR-pNA [3]): 120 M⁻¹ s⁻¹; ΔΔG‡T = RT ln[(kcat/KM)WT/(kcat/KM)CMM] (suc-AAPR-pNA [3]): S166C-S-d -1.00
14 | SBL S166C-S-ethyl | KM0.76±0.08 mM | 
15 | SBL N62C-d of Example 2 (2,2-bis(aminomethyl)-3-aminopropyl side chain) | 1170 µM | 
16 | SBL S156C-b of Example 1 (4-carboxybutyl side chain) | 1080 µM | 
17 | SBL S166C-S-CH2CH2SO3- | 1340 µM | kcat/KM [1]: 19000 M⁻¹ s⁻¹; KM (suc-AAPR-pNA [3]): 3400 µM; kcat/KM (suc-AAPR-pNA [3]): 50 M⁻¹ s⁻¹; ΔΔG‡T = RT ln[(kcat/KM)WT/(kcat/KM)CMM] (suc-AAPR-pNA [3]): S166C-S-b -0.49
18 | SBL S166C-S-CH2CH2C(CH3)(COO-)2 | 2260 µM | kcat/KM [1]: 30000 M⁻¹ s⁻¹; KM (suc-AAPR-pNA [3]): 5300 µM; kcat/KM (suc-AAPR-pNA [3]): 80 M⁻¹ s⁻¹; ΔΔG‡T = RT ln[(kcat/KM)WT/(kcat/KM)CMM] (suc-AAPR-pNA [3]): S166C-S-1-0.76
19 | SBL S156C-a of Example 2 (aminoethyl side chain) | 730 µM | 
20 | SBL N62C-d of Example 1 (3,3-dicarboxybutyl side chain) | 1470 µM | 
21 | SBL L217C-b of Example 1 (4-carboxybutyl side chain) | 1030 µM | 
22 | SBL L217C-S-n-pentyl | KM 0.52±0.05 mM | 
23 | SBL S156C-S-benzyl | KM 0.59±0.05 mM | 
24 | SBL S156C-e of Example 1 (3,3,4-tricarboxybutyl side chain) | 1870 µM | 
25 | SBL S156C-b of Example 2 (2-(trimethylammonium)ethyl side chain) | 740 µM | 

Row | Molecule | KM [1] | further results
26 | SBL L217C-a of Example 1 (sulfonatoethyl side chain) | 1800 µM | 
27 | SBL N62C-c of Example 1 (3,5-dicarboxybenzyl side chain) | 1000 µM | 
28 | SBL S166C-S-CH2(CH2)2CH2COO- | 1520 µM | kcat/KM [1]: 31000 M⁻¹ s⁻¹; KM (suc-AAPR-pNA [3]): 8200 µM; kcat/KM (suc-AAPR-pNA [3]): 41 M⁻¹ s⁻¹; ΔΔG‡T = RT ln[(kcat/KM)WT/(kcat/KM)CMM] (suc-AAPR-pNA [3]): S166C-S-h -0.37
29 | SBL N62C-b of Example 2 (2-(trimethylammonium)ethyl side chain) | 860 µM | 
30 | SBL L217C (unmodified cysteine mutant, R = H) | 800 µM | 
31 | SBL S156C-c of Example 1 (3,5-dicarboxybenzyl side chain) | 1390 µM | 
32 | SBL S156C-a of Example 1 (sulfonatoethyl side chain) | 1200 µM | 
33 | SBL S166C-d of Example 2 (2,2-bis(aminomethyl)-3-aminopropyl side chain) | 1160 µM | 
34 | SBL N62C-S-ethyl | KM 0.55±0.04 mM | 
35 | SBL S156C-d of Example 2 (2,2-bis(aminomethyl)-3-aminopropyl side chain) | 810 µM | 
36 | SBL S166C-S-CH2(CH2)8CH3 | 1090 µM | kcat/KM [1]: 75000 M⁻¹ s⁻¹; KM (suc-AAPA-pNA [2]): 1900 µM; kcat/KM (suc-AAPA-pNA [2]): 3600 M⁻¹ s⁻¹
37 | SBL N62C (unmodified cysteine mutant, R = H) | 1900 µM | 
38 | SBL L217C-d of Example 1 (3,3-dicarboxybutyl side chain) | 1650 µM | 
39 | SBL N62C-S-benzyl | KM 0.34±0.03 mM | 
40 | SBL N62C-b of Example 1 (4-carboxybutyl side chain) | 1010 µM | 
41 | SBL S166C-(CH2)2NMe3+ | 1420 µM | 
42 | SBL S156C-c of Example 2 (5,5-bis(aminomethyl)-3-oxo-hexyl side chain) | 760 µM | 
43 | SBL L217C-d of Example 2 (2,2-bis(aminomethyl)-3-aminopropyl side chain) | 2900 µM | 
44 | SBL L217C-a of Example 2 (aminoethyl side chain) | 640 µM | 
45 | SBL L217C-c of Example 1 (3,5-dicarboxybenzyl side chain) | 810 µM | 
46 | SBL S166C-S-CH2-c-C6H11 | 700 µM | kcat/KM [1]: 6900 M⁻¹ s⁻¹; KM (suc-AAPA-pNA [2]): 1900 µM; kcat/KM (suc-AAPA-pNA [2]): 14800 M⁻¹ s⁻¹
47 | SBL N62C-S-n-pentyl | KM 0.75±0.05 mM | 
48 | SBL S166C-S-CH2CH2C(COO-)3 | 2460 µM | kcat/KM [1]: 31000 M⁻¹ s⁻¹; KM (suc-AAPR-pNA [3]): 5200 µM; kcat/KM (suc-AAPR-pNA [3]): 200 M⁻¹ s⁻¹; ΔΔG‡T = RT ln[(kcat/KM)WT/(kcat/KM)CMM] (suc-AAPR-pNA [3]): S166C-S-j -1.31
49 | SBL S156C-d of Example 1 (3,3-dicarboxybutyl side chain) | 1670 µM | 
50 | B1 |  | KM (suc-AAPE-pNA [5]): 4400 µM; kcat/KM (suc-AAPE-pNA [5]): 400 M⁻¹ s⁻¹; KM (suc-AAPR-pNA [6]): 7200 µM; kcat/KM (suc-AAPR-pNA [6]): 22 M⁻¹ s⁻¹; KM (suc-AAPA-pNA [7]): 2000 µM; kcat/KM (suc-AAPA-pNA [7]): 8800 M⁻¹ s⁻¹; KM [8]: 730 µM; kcat/KM [8]: 209000 M⁻¹ s⁻¹
